Numbering of substitutions follows the chain as printed. Names and notes keep the numbering of the source.
T1: hIL-11R (Homo sapiens, UniProt Q14626)
T1 sequence (Q14626 23-422): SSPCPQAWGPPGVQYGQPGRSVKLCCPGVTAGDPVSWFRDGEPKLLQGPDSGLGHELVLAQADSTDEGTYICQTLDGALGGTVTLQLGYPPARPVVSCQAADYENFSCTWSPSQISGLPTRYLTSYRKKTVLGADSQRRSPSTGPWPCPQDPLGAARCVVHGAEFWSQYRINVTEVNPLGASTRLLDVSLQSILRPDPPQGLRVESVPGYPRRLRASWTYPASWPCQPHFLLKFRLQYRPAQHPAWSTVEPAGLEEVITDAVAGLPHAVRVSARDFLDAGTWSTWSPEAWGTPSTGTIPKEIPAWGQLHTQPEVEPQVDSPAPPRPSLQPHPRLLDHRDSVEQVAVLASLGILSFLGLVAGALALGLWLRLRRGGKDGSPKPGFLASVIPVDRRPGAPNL

B1: mAb21: anti-IL-11Rα antibody, human IgG4 (S228P), kappa; VH SEQ ID NO: 233, VL SEQ ID NO: 234 (antibody, V domains shown)
VH: EVQLLESGGGLVQPGGSLRLSCAASGFTFSHYSMTWVRQAPGKGLEWVSSIVPYGDLTQYADSVKGRFTISRDNSKNTLYLQMNSLRAEDTAVYYCAKGPGWGSFDLWGRGTLVTVSS
VL: DIQMTQSPSSLSASVGDRVTITCQASQDINNYLNWYQQKPGKAPKLLIYDASNLQTGVPSRFSGSGSGTDFTFTISSLQPEDIATYYCQQHESQSPTFGPGTKVDIK
modifications: IgG4 S228P kappa constant regions; mAb21 VH Chain; mAb21 VL Chain
B2: mAb29: anti-IL-11Rα antibody, human IgG4 (S228P), kappa; VH SEQ ID NO: 249, VL SEQ ID NO: 250 (antibody, V domains shown)
VH: B1 VH with H31S
VL: B1 VL
modifications: IgG4 S228P kappa constant regions; mAb29 VH Chain; mAb29 VL Chain
B3: mAb31: anti-IL-11Rα antibody, human IgG4 (S228P), kappa; VH SEQ ID NO: 253, VL SEQ ID NO: 254 (antibody, V domains shown)
VH: B1 VH with H31V
VL: B1 VL
modifications: IgG4 S228P kappa constant regions; mAb31 VH Chain; mAb31 VL Chain
B4: mAb23: anti-IL-11Rα antibody, human IgG4 (S228P), kappa; VH SEQ ID NO: 237, VL SEQ ID NO: 238 (antibody, V domains shown)
VH: B1 VH with H31K
VL: B1 VL
modifications: IgG4 S228P kappa constant regions; mAb23 VH Chain; mAb23 VL Chain
B5: mAb18: anti-IL-11Rα antibody, human IgG4 (S228P), kappa; VH SEQ ID NO: 227, VL SEQ ID NO: 228 (antibody, V domains shown)
VH: B1 VH with H31E
VL: B1 VL
modifications: IgG4 S228P kappa constant regions; mAb18 VH Chain; mAb18 VL Chain
B6: mAb20: anti-IL-11Rα antibody, human IgG4 (S228P), kappa; VH SEQ ID NO: 231, VL SEQ ID NO: 232 (antibody, V domains shown)
VH: B1 VH with H31G
VL: B1 VL
modifications: IgG4 S228P kappa constant regions; mAb20 VH Chain; mAb20 VL Chain
B7: mAb26: anti-IL-11Rα antibody, human IgG4 (S228P), kappa; VH SEQ ID NO: 243, VL SEQ ID NO: 244 (antibody, V domains shown)
VH: B1 VH with H31N
VL: B1 VL
modifications: IgG4 S228P kappa constant regions; mAb23 VH Chain; mAb26 VL Chaim
B8: mAb28: anti-IL-11Rα antibody, human IgG4 (S228P), kappa; VH SEQ ID NO: 247, VL SEQ ID NO: 248 (antibody, V domains shown)
VH: B1 VH with H31R
VL: B1 VL
modifications: IgG4 S228P kappa constant regions; mAb28 VH Chain; mAb28 VL Chain
B9: mAb19: anti-IL-11Rα antibody, human IgG4 (S228P), kappa; VH SEQ ID NO: 229, VL SEQ ID NO: 230 (antibody, V domains shown)
VH: B1 VH with H31F
VL: B1 VL
modifications: IgG4 S228P kappa constant regions; mAb19 VH Chain; mAb19 VL Chain
B10: mAb16: anti-IL-11Rα antibody, human IgG4 (S228P), kappa; VH SEQ ID NO: 223, VL SEQ ID NO: 224 (antibody, V domains shown)
VH: B1 VH with H31A
VL: B1 VL
modifications: IgG4 S228P kappa constant regions; mAb16 VH Chain; mAb16 VL Chain
B11: mAb27: anti-IL-11Rα antibody, human IgG4 (S228P), kappa; VH SEQ ID NO: 245, VL SEQ ID NO: 246 (antibody, V domains shown)
VH: B1 VH with H31P
VL: B1 VL
modifications: IgG4 S228P kappa constant regions; mAb27 VH Chain; mAb27 VL Chain
B12: mAb17: anti-IL-11Rα antibody, human IgG4 (S228P), kappa; VH SEQ ID NO: 225, VL SEQ ID NO: 226 (antibody, V domains shown)
VH: B1 VH with H31D
VL: B1 VL
modifications: IgG4 S228P kappa constant regions; mAb17 VH Chain; mAb17 VL Chain
B13: mAb22: anti-IL-11Rα antibody, human IgG4 (S228P), kappa; VH SEQ ID NO: 235, VL SEQ ID NO: 236 (antibody, V domains shown)
VH: B1 VH with H31I
VL: B1 VL
modifications: IgG4 S228P kappa constant regions; mAb22 VH Chain; mAb22 VL Chain
B14: mAb24: anti-IL-11Rα antibody, human IgG4 (S228P), kappa; VH SEQ ID NO: 239, VL SEQ ID NO: 240 (antibody, V domains shown)
VH: B1 VH with H31L
VL: B1 VL
modifications: IgG4 S228P kappa constant regions; mAb24 VH Chain; mAb24 VL Chain
B15: mAb32: anti-IL-11Rα antibody, human IgG4 (S228P), kappa; VH SEQ ID NO: 255, VL SEQ ID NO: 256 (antibody, V domains shown)
VH: B1 VH with H31Y
VL: B1 VL
modifications: IgG4 S228P kappa constant regions; mAb32 VH Chain; mAb32 VL Chain
B16: mAb30: anti-IL-11Rα antibody, human IgG4 (S228P), kappa; VH SEQ ID NO: 251, VL SEQ ID NO: 252 (antibody, V domains shown)
VH: B1 VH with H31T
VL: B1 VL
modifications: IgG4 S228P kappa constant regions; mAb30 VH Chain; mAb30 VL Chain
B17: mAb25: anti-IL-11Rα antibody, human IgG4 (S228P), kappa; VH SEQ ID NO: 241, VL SEQ ID NO: 242 (antibody, V domains shown)
VH: B1 VH with H31M
VL: B1 VL
modifications: IgG4 S228P kappa constant regions; mAb25 VH Chain; mAb25 VL Chain

These molecules were tested against T1, hIL-11R (assay: Alternate biolayer interferometry assay (AHC biosensors) ranking mAbs 16-32 against mAb5). Details: AHC biosensors.
Format: binding
Source text: A further series of antibodies were designed in which the residue at Kabat position 31 of the heavy chain was varied (mAbs 16-32). In this case an alternate biolayer interferometry assay was used to initially rank the antibodies compared to mAb5, the closest relative in sequence to mAbs 16-32. MAbs were loaded onto anti-human constant domain (AHC) biosensors (FortéBio) in 10×kinetics buffer consisting of PBS, 0.1% BSA, 0.02% polysorbate 20 (TWEEN™) for 120 s to achieve a spectral shift value of 0.8 to 1.2 nm. Association was carried out in the presence of 2-fold dilution series of hIL-11R and was allowed to proceed for 120 s. Dilution series started 10 nM. The dissociation in 10×kinetics buffer for 1200 s. Binding kinetic measurements were taken on an Octet RED96e instrument.

Row | ka | kd | Molecule
1 | 750000 M⁻¹ s⁻¹ | off-scale | B1
2 | 610000 M⁻¹ s⁻¹ | 1.8e-05 s⁻¹ | B2
3 | 690000 M⁻¹ s⁻¹ | off-scale | B3
4 | 720000 M⁻¹ s⁻¹ | off-scale | B4

Same assay, conditions: compared to mAb5

Row | potency compared to mAb5 by more detailed kinetic measurements (in words) | Molecule
5 | further improved potency | B1
6 | further improved potency | B2
7 | further improved potency | B3
8 | further improved potency | B4

Same assay, conditions: compared to mAb5 (comparator)

Row | qualitative assessment | Molecule
9 | improved/ | B1
10 | decreased | B5
11 | similar | B6
12 | improved/ | B2
13 | decreased | B7
14 | similar | B8
15 | similar | B9
16 | similar | B10
17 | improved/ | B3
18 | decreased | B11
19 | decreased | B12
20 | similar | B13
21 | similar | B14
22 | improved/ | B4
23 | similar | B15
24 | decreased | B16
25 | similar | B17

Source: patent US12365738B2, “Method of treating an interleukin-11-associated or -mediated fibrotic disease or condition by administering an anti-interleukin-11 receptor subunit alpha (IL-11RA) antibody” (Lassen Therapeutics, Inc., priority 2021, dated 2025)
